Ends that are not written are not given here.
Key:
metastatic breast cancer = metastatic breast cancer patients; cited from earlier work
[1] = biological target: T1, Brk phosphorylation of p27 (Homo sapiens, UniProt P46527+Q13882); test: In vitro Brk phosphorylation of p27 with competitor, pY88/pY74 immunoblot; type: biochemical; settings: increasing amounts of competitor
T1 construct: were incubated with p27 before the addition of full length Brk and ATP; We incubated full length p27 with Src or Brk in the presence of ATP; purchased SignalChem (GST-PTK6/Brk) or Invitrogen (His-PTK6/Brk); host or cells: p27 made in house in E. coli
Description: (§1) FIGS. 3A-3D: SH3:PxxP interaction is required for p27 Y88 phosphorylation. (FIG. 3A) p27 and Brk were incubated with ATP and with increasing concentrations of the PxxP competitor, F58-106, followed by immunoblot analysis with pY88, pY74 and p27 antibodies. Lane 5: +equimolar amount of F58-106 and p27, lane 6: ++2.5×F58-106, lane 7: +++5×F58-106, lane 8: ++++10×F58-106. (FIG. 3B) GST-Brk, p27 and F58-106 were incubated, immunoprecipitated with GST antibodies, followed by immunblot analysis with GST or p27 antibodies. (FIG. 3C) Increasing amounts of GST-SH3, GST-SH2 or GST peptides were incubated with p27, followed by immunoblot analysis with pY88, pY74, p27 and GST antibodies. Lanes 3, 5, 7: 2.5× competitor, lanes 4, 6, […]: 5× competitor. (FIG. 3D) GST-SH3, GST-SH2 or GST peptides were incubated with p27 or ΔK1/K3, followed by metal agarose chromatography and immunoblot analysis with GST and p27 antibodies. Loading control: GST peptides added to the reaction which are not representative of association.
FIGS. 8A-8G: Alt Brk (SEQ ID NO: 17) acts as an endogenous inhibitor of Brk. (FIG. 8A) Flag tagged WT p27 was incubated with increasing amount of Flag tagged Alt-Brk (lanes 5-7) in presence of equal amount of Brk. Lane 5: +equimolar Brk and Alt, lane 6: ++2.5×Alt, lane 7: +++5×Alt Immunoblot analysis was performed using Flag, pY88 and pY74 antibodies. (FIG. 8B) Alt-Brk expressing cells were plated on day 0. They were induced (+Tet) or uninduced (−Tet) on day 1 and cells were harvested on days 2, 3 and 4 Immunoblot analysis was performed using N-terminal Brk, C-terminal Brk, Rb, Ser780 pRb, Flag or Actin antibodies. (FIG. 8C) p27 was immunoprecipitated from induced (+) or un-induced (−) Alt Brk expressing cells and immunoblot analysis was performed with p27, pY88 and pY74 antibodies. (FIG. 8D) Alt Brk or TRE3G vector alone cells were treated with + or −Tet and cell counts were used to monitor proliferation. […] (FIG. 8F) p27 was immunoprecipitated from MCF7 cells that were either contact arrested (G0), asynchronous (A), or serum starved with 1% and 0% serum for 48 h. Immunoblot analysis was performed to probe for p27, pY88 and pY74. IgG and Mv1Lu lysates served as a negative control. (FIG. 8G) Expression of WT or mutant p27s was induced by adding Tetracycline to the culture media. p27 was immunoprecipitated from cell lysates and probed for p27, pY88 and pY74 Immunoprecipitation with IgG served as a negative control.
It appeared that the SH3:PxxP interaction was required for Y88 phosphorylation. […]
To directly verify this, we expressed a Flag-tagged Alt-Brk in bacteria and purified this 15 Kd protein (FIG. 8A). When p27 was incubated with Brk, Y88 and Y74 phosphorylation was detected by immunoblot analysis (FIG. 8A, lane 3). […]

GST-Brk = biological target: T2, GST-Brk (Homo sapiens, UniProt Q13882); test: GST immunoprecipitation of GST-Brk with p27 and/or F58-106; type: binding
T2 construct: this K1-containing peptide was sufficient to associate with full length Brk; purchased SignalChem
Description: as §1
We then performed the converse reaction, and increasing amounts of individual recombinant, GST-tagged pieces of Brk (GST-SH2, GST-SH3) or GST peptides were incubated with p27 before the addition of full length Brk and ATP. The reactions were probed by immunoblot analysis with pY88 and pY74 antibodies (FIG. 3C).

WT p27 = biological target: T3, WT p27 (Homo sapiens, UniProt P46527); test: Metal agarose chromatography of His-p27 with GST peptides; type: binding; settings: absence of ATP
T3 construct: made in house; host or cells: E. coli
Description: as §1
(§2) We incubated the GST, GST-SH3, or GST-SH2 peptides with His-tagged versions of p27 and the ΔK1/K3 mutant, isolated complexes by metal agarose chromatography and performed immunoblot analysis with GST antibodies (FIG. 3D). […] However, this binding was independent of the PxxP K1 site (FIG. 3D, lane 3). […]

ΔK1/K3 p27 = biological target: T4, ΔK1/K3 p27 (Homo sapiens, UniProt P46527, K189A/K190A/P188A/P191A/P91A/P92A/P94A/P95A); test: Metal agarose chromatography of His-ΔK1/K3 p27 with GST peptides; type: binding; settings: absence of ATP
T4 construct: made in house; host or cells: E. coli
Description: as §1, §2

Brk SH3 domain = biological target: T5, Brk SH3 domain (Homo sapiens, UniProt Q13882); test: Phage-ELISA of GST-PxxP peptides (K1, K2, K3) against SH3 phages; type: binding; settings: GST-fusion PxxP peptides
T5 construct: made in house; host or cells: phage supernatants
T5 sequence (Q13882 8-72 limits assumed): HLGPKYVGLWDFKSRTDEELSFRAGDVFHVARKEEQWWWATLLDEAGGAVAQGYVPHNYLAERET
Text: (§3) FIGS. 1A-1C: Brk binds to p27 with high affinity in vitro. (FIG. 1A) p27 sequence highlighting the proline tracts of the three putative SH3 domain recruitment sites (PxxP): K1 (90-96), K2 (114-117) and K3 (188-195) (SEQ ID NO: 1). Phage-ELISA-analysis of SFK SH3 interactions with p27 (FIG. 1B) or p27's PxxP motifs (FIG. 1C). Data shown is the mean of three independent experiments±standard deviation after normalization and subtraction of the background binding to GST. (FIG. 1C) Recombinantly produced GST-K1, (amino acids 85-102 of SEQ ID NO: 1), −K2, (amino acids 108-123 of SEQ ID NO: 1), −K3 (amino acids 182-197 of SEQ ID NO: 1), or GST was immobilized in 96-well plates and analyzed for binding of the phages with the Brk-, Frk-, Yes-, or Abl-SH3 domain.
The following materials and methods are provided to facilitate the practice of the present invention. • Antibodies. Mouse Anti-p27(Kip1), BD Biosciences 610242. Cdk4 (DCS-35), p27 (N-20), C-terminal Brk (C-18), Brk (D-6), N-terminal Brk (N-20), c-Src (SC-18), Cyclin D1 (H 295), ARHGDIA (A-20), Santa Cruz Biotechnology. Anti-beta galactosidase antibody is from RND systems (af6464). Phosphotyrosine (P-Tyr-100), Cell Signaling Technology. Cdk4 (C-term, Cat. No. AP7520b), Abgent. GST (PRB-112C), Covance. Flag (F3165), Actin (A2066), Sigma Aldrich. Phospho Brk (Tyr342), EMD Millipore. pY74, Y88 and Y89 phospho-specific antibodies were generated by immunization of rabbits with phosphor-specific p27 peptides (Invitrogen). Negative- and positive-affinity chromatography with non-phosphorylated and phosphorylated peptides respectively, were performed to purify the antibodies. The antibodies are specific only for Y88,Y89, Y74 phosphorylation respectively (FIG. 2B, data not shown). • Enzymes. Gst-PTK6/Brk, GST-Src (SignalChem), His-Abl (New England Biolabs), His-PTK6/Brk, His-Src (Invitrogen) were used according to manufacturer's specifications. […] Phage supernatants were generated and binding of SH3-phages to recombinantly produced His-tagged-p27 or GST-PxxP-peptides was analyzed as described (28). • Construction of mutants and peptides. […]

full-length p27 = biological target: T6, full-length p27 (Homo sapiens, UniProt P46527); test: Phage-ELISA of SFK SH3 domain interactions with p27; settings: phages carry many reiterated SH3 domains, which would enhance binding; read-out: Kd of interaction with full-length p27
T6 construct: made in house; host or cells: E. coli
Text: as §3
The following materials and methods are provided to facilitate the practice of the present invention. • Antibodies. Mouse Anti-p27(Kip1), BD Biosciences 610242. Cdk4 (DCS-35), p27 (N-20), C-terminal Brk (C-18), Brk (D-6), N-terminal Brk (N-20), c-Src (SC-18), Cyclin D1 (H 295), ARHGDIA (A-20), Santa Cruz Biotechnology. Anti-beta galactosidase antibody is from RND systems (af6464). Phosphotyrosine (P-Tyr-100), Cell Signaling Technology. […] Phage supernatants were generated and binding of SH3-phages to recombinantly produced His-tagged-p27 or GST-PxxP-peptides was analyzed as described (28). • Construction of mutants and peptides. […]

T1 sequence (Q13882 whole entry): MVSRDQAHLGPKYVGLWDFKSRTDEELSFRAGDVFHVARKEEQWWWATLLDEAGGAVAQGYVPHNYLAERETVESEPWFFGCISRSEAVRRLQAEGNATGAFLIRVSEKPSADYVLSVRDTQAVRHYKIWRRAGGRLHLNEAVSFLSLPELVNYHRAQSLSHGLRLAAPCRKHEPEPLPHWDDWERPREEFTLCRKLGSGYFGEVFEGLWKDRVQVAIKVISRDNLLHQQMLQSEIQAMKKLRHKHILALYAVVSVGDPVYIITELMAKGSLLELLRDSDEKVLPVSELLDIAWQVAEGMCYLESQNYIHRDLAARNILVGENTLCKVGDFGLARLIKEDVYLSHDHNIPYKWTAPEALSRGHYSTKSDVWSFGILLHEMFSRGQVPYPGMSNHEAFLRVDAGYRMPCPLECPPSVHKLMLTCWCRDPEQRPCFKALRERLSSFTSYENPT
T1 sequence (P46527 whole entry): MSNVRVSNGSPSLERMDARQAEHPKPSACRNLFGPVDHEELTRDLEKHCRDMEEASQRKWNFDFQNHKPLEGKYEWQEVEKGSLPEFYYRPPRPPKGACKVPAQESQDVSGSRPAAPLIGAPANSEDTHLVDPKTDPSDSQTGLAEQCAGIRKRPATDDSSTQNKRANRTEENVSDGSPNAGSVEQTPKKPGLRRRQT
T3 sequence (P46527 whole entry): as above
T6 sequence (P46527 whole entry, the tested form may be a part): as the sequence (P46527 whole entry) above
T2 sequence (Q13882 whole entry): as the sequence (Q13882 whole entry) above
T4 sequence (P46527 whole entry P91A/P92A/P94A/P95A/P188A/K189A/K190A/P191A): as the sequence (P46527 whole entry) above, with P91A, P92A, P94A, P95A, P188A, K189A, K190A, P191A counted along it

In the case of N#Cc1ccc(C(c2ccc(C#N)cc2)n2cncn2)cc1 [letrozole], the “median PFS” value (metastatic breast cancer) is listed as 10.2 months.
In the case of “F58-106: Flagged tagged K1-site containing peptide, p27 residues 58 to 106 (RKWNFDFQNHKPLEGKYEWQEVEKGSLPEFYYRPPRPPKGACKVPAQES; also: Flag tag, site not given here)”, the “p27 Y74 phosphorylation by Brk” value [1] is reported as “only slightly reduced”, the “p27 Y88 phosphorylation by Brk” value [1] is reported as “decreased” and the “association with GST-Brk” value (GST-Brk) is reported as “interacted”.
With “GST-SH2: recombinant GST-tagged SH2 piece of Brk [reference compound]” the “p27 Y74 phosphorylation by Brk” value [1] was “did not reduce”, the “p27 Y88 phosphorylation by Brk” value [1] was “did not reduce” and the “association with WT p27” value (WT p27) was “bound”. The “association with ΔK1/K3 p27” value (ΔK1/K3 p27) was “bound”.
For “K1: GST-fusion peptide, amino acids 85-102 of p27 (SEQ ID NO: 1) (PEFYYRPPRPPKGACKVP; also: GST-fusion peptide; listed as Homo sapiens)”, the “interaction with Brk SH3 domain” value (Brk SH3 domain) was “weakly”.
In the case of “K2: GST-fusion peptide, amino acids 108-123 of p27 (SEQ ID NO: 1) (DVSGSRPAAPLIGAPA; also: GST-fusion peptide; listed as Homo sapiens)”, the “interaction with Brk SH3 domain” value (Brk SH3 domain) is reported as “No SH3 domains interacted”.
In the case of “K3: GST-fusion peptide, amino acids 182-197 of p27 (SEQ ID NO: 1) (GSVEQTPKKPGLRRRQ; also: GST-fusion peptide; listed as Homo sapiens)”, the “interaction with Brk SH3 domain” value (Brk SH3 domain) is reported as “strongly”.
With “SH3 domain of Brk: Brk SH3 domain displayed on phages (SEQ ID NO: 2)” the Kd (full-length p27) was 250 nM.

Source: patent US11260100B2, “Compositions targeting the interaction domain between p27Kip1 and Brk and methods of use thereof to inhibit p27 Y phosphorylation and cdk4 activity” (The Research Foundation for the State University of New York, priority 2014, dated 2022)
